Numbered stars: 1 amine (or outer) side, 2 acyl side, 3 side chain; on linkers, the order of the positions; unused ones are H or OH. Square brackets hold non-standard residues; d marks the D form. Side chains are listed from the residue outwards. Ends that are not written are not given here. * marks the point of attachment. Phe(4-CH2NH2) = NCc1ccc(C[C@H](N)C(=O)O)cc1; C18 diacid = O=C(O)CCCCCCCCCCCCCCCCC(=O)*; αMeW = C[C@](N)(Cc1c[nH]c2ccccc12)C(=O)O; γGlu = O=C(O)[C@H](CCC(=O)[*:2])N[*:1]; Met(O2) = CS(=O)(=O)CC[C@H](N)C(=O)O; αMeD = C[C@](N)(CC(=O)O)C(=O)O; αMeS = C[C@](N)(CO)C(=O)O; AEEA = NCCOCCOCC(=O)O; Aib = CC(C)(N)C(=O)O
B1: TP633 (peptide)
peptide: H[Aib]QGTFTSDYSKYLDARAAQ[Phe(4-CH2NH2)]([AEEA-γGlu-C18 diacid])FVQWLLDT-NH2
modifications: N-terminus assumed
SMILES: CC(C)C[C@H](NC(=O)[C@H](Cc1ccc(O)cc1)NC(=O)[C@H](CCCCN)NC(=O)[C@H](CO)NC(=O)[C@H](Cc1ccc(O)cc1)NC(=O)[C@H](CC(=O)O)NC(=O)[C@H](CO)NC(=O)[C@@H](NC(=O)[C@H](Cc1ccccc1)NC(=O)[C@@H](NC(=O)CNC(=O)[C@H](CCC(N)=O)NC(=O)C(C)(C)NC(=O)[C@@H](N)Cc1c[nH]cn1)[C@@H](C)O)[C@@H](C)O)C(=O)N[C@@H](CC(=O)O)C(=O)N[C@@H](C)C(=O)N[C@@H](CCCNC(=N)N)C(=O)N[C@@H](C)C(=O)N[C@@H](C)C(=O)N[C@@H](CCC(N)=O)C(=O)N[C@@H](Cc1ccc(CNC(=O)COCCOCCNC(=O)CC[C@H](NC(=O)CCCCCCCCCCCCCCCCC(=O)O)C(=O)O)cc1)C(=O)N[C@@H](Cc1ccccc1)C(=O)N[C@H](C(=O)N[C@@H](CCC(N)=O)C(=O)N[C@@H](Cc1c[nH]c2ccccc12)C(=O)N[C@@H](CC(C)C)C(=O)N[C@@H](CC(C)C)C(=O)N[C@@H](CC(=O)O)C(=O)N[C@H](C(N)=O)[C@@H](C)O)C(C)C
B2: TP578 (peptide)
peptide: H[dS]QGTFTSDYSKYLD[Aib]RAAK([AEEA-AEEA-γGlu-C20‑OH])DFVQWL[Met(O2)]DT-NH2
B3: TP631 (peptide)
peptide: H[Aib]QGTFTSDYSKYLDARAAK([AEEA-AEEA-γGlu-C18 diacid])DFVQ[αMeW]L[Met(O2)]DT-NH2
modifications: N-terminus assumed
SMILES: CC(C)C[C@H](NC(=O)[C@H](Cc1ccc(O)cc1)NC(=O)[C@H](CCCCN)NC(=O)[C@H](CO)NC(=O)[C@H](Cc1ccc(O)cc1)NC(=O)[C@H](CC(=O)O)NC(=O)[C@H](CO)NC(=O)[C@@H](NC(=O)[C@H](Cc1ccccc1)NC(=O)[C@@H](NC(=O)CNC(=O)[C@H](CCC(N)=O)NC(=O)C(C)(C)NC(=O)[C@@H](N)Cc1c[nH]cn1)[C@@H](C)O)[C@@H](C)O)C(=O)N[C@@H](CC(=O)O)C(=O)N[C@@H](C)C(=O)N[C@@H](CCCNC(=N)N)C(=O)N[C@@H](C)C(=O)N[C@@H](C)C(=O)N[C@@H](CCCCNC(=O)COCCOCCNC(=O)COCCOCCNC(=O)CC[C@H](NC(=O)CCCCCCCCCCCCCCCCC(=O)O)C(=O)O)C(=O)N[C@@H](CC(=O)O)C(=O)N[C@@H](Cc1ccccc1)C(=O)N[C@H](C(=O)N[C@@H](CCC(N)=O)C(=O)N[C@@](C)(Cc1c[nH]c2ccccc12)C(=O)N[C@@H](CC(C)C)C(=O)N[C@@H](CCS(C)(=O)=O)C(=O)N[C@@H](CC(=O)O)C(=O)N[C@H](C(N)=O)[C@@H](C)O)C(C)C
B4: TP592 (peptide)
peptide: H[αMeS]QGTFTSDYSKYLD[Aib]RAAK([AEEA-AEEA-γGlu-C20‑OH])DFVQWL[Met(O2)]DT-NH2
B5: TP565 (peptide)
peptide: H[Aib]QGTFTSDYSKYLDARAAK([AEEA-AEEA-γGlu-C20‑OH])DFVQWL[Met(O2)][αMeD]T-NH2
B6: TP593 (peptide)
peptide: H[αMeS]QGTFTSDYSKYLD[Aib]RAAK([AEEA-AEEA-γGlu-C20‑OH])DFVQWL[Met(O2)]DT-NH2
B7: TP632 (peptide)
peptide: H[Aib]QGTFTSDYSKYLDARAAKDFVQ[αMeW]L[Met(O2)][αMeD]T-NH2
modifications: not fully specified (residue 20); printed as HUQGTFTSDYSKYLDARAAK(PEG2PEG2γEC18-OH)DFVQαMWL2αMDT-NH2

These binders were tested against human GLP-1 receptor (GLP1R) (human, UniProt P43220 24-463) (assay: cell-based or functional assay).

| Binder | GLP1R EC50 human |
| --- | --- |
| B1 | 0.19 nM |
| B2 | 4.95 nM |
| B3 | 1.32 nM |
| B4 | 2.42 nM |
| B5 | 2.26 nM |
| B6 | 4.95 nM |
| B7 | 6.6 nM |

The binders below were run against human Glucagon receptor (GCGR) (human, UniProt P47871 26-477) (assay: cell-based or functional assay).
human Glucagon receptor (GCGR), sequence (P47871 26-477): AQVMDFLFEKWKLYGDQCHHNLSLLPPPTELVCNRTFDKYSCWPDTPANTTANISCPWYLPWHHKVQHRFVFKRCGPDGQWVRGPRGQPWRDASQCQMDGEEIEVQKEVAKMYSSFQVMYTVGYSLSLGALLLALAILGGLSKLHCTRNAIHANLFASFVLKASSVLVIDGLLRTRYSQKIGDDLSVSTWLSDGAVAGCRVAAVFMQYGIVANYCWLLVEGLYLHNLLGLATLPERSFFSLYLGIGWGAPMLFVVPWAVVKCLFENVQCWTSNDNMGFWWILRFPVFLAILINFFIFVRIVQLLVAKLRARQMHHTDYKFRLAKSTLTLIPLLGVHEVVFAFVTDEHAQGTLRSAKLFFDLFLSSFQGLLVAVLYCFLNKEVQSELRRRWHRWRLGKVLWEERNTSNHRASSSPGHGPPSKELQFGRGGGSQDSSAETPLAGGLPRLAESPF

| Binder | GCGR EC50 human |
| --- | --- |
| B1 | 0.12 nM |
| B2 | 0.604 nM |
| B3 | 1.65 nM |
| B5 | 5.42 nM |
| B7 | 5.9 nM |

— patent US20200270325A1 (Merck Sharp & Dohme, published 2020)
